Residue numbers refer to the chain shown, from its start. In names and notes the source's numbering stands. Several values for one entry are separate records, joined by “and”; a condition that tells them apart may be missing. Equal entries are not always repeated. Where two headings read alike, the source gives them in different places. Blank lines part the entries; values can stand above or below the binder they belong to.
What was measured:
[1] = target: T1, human CD11a (human, UniProt P20701 26-1170); experiment: FACScan, Jurkat cells
T1 construct: whole, on cells; On cells it stands paired with CD18 as LFA-1; also called alpha subunit of LFA-1; LFA-1 (CD11a/CD18)

[2] = target: T1, human CD11a; experiment: FACScan, Jurkat cells; remark: listed apart in the source
[3] = target: T1, human CD11a; experiment: FACScan, Jurkat cells; remark: listed apart in the source
[4] = target: T1, human CD11a; experiment: cell-based or functional assay
[5] = target: T1, human CD11a; experiment: cell-based or functional assay; remark: listed apart in the source
[6] = target: T2, rhesus CD11a (rhesus, UniProt H9Z8N3 26-1169); experiment: cell binding EC50, rhesus against human CD11a
T2 construct: whole, on cells; also called rhCD11a
T2 sequence: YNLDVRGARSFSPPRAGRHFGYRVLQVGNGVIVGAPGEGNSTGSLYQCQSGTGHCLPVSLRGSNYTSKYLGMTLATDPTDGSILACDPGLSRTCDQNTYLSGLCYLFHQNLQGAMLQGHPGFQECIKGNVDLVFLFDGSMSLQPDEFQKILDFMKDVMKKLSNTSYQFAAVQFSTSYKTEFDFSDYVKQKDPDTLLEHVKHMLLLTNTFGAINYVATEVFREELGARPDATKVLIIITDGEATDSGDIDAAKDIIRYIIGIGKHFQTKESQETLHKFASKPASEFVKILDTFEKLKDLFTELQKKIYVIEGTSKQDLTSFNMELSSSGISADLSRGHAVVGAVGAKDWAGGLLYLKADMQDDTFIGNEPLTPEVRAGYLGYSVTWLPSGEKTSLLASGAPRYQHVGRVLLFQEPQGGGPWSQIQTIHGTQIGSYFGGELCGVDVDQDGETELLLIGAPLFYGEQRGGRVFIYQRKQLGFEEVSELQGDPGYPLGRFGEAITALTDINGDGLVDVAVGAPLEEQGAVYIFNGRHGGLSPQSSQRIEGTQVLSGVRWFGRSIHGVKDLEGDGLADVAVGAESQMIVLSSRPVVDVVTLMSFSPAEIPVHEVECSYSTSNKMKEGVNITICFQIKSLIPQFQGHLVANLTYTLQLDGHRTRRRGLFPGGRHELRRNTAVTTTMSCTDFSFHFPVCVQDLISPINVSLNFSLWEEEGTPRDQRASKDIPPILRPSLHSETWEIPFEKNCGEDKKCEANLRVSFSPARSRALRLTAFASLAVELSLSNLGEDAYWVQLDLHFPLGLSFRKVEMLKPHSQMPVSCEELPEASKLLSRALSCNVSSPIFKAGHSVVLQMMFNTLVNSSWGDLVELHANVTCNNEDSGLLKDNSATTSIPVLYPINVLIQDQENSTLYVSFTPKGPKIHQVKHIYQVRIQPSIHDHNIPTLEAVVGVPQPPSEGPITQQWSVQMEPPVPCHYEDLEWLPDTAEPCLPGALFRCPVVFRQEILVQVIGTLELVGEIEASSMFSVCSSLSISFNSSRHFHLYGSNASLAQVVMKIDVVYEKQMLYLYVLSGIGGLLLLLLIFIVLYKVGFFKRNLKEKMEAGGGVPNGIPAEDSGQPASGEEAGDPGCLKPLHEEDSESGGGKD

[7] = target: T2, rhesus CD11a; experiment: binding to rhesus peripheral blood lymphocytes
[8] = target: T2, rhesus CD11a; experiment: binding to rhesus peripheral blood lymphocytes; remark: listed apart in the source
[9] = target: T1, human CD11a; experiment: saturation binding, human lymphocytes, donor 1, Kd(app)
[10] = target: T1, human CD11a; experiment: saturation binding, human lymphocytes, donor 2, Kd(app)
[11] = target: T1, human CD11a; experiment: saturation binding of 125I-antibody to human mononuclear cells, Kd(app)
[12] = target: T1, human CD11a; experiment: FACScan, Jurkat cells; remark: listed apart in the source
[13] = target: T2, rhesus CD11a; experiment: cell-based or functional assay
[14] = target: T3, rhesus-human chimeric CD11a (Rh/HuCD11a) (human (I-domain mutated to rhesus), UniProt P20701 26-1170); experiment: cell-based or functional assay
T3 sequence (looked up): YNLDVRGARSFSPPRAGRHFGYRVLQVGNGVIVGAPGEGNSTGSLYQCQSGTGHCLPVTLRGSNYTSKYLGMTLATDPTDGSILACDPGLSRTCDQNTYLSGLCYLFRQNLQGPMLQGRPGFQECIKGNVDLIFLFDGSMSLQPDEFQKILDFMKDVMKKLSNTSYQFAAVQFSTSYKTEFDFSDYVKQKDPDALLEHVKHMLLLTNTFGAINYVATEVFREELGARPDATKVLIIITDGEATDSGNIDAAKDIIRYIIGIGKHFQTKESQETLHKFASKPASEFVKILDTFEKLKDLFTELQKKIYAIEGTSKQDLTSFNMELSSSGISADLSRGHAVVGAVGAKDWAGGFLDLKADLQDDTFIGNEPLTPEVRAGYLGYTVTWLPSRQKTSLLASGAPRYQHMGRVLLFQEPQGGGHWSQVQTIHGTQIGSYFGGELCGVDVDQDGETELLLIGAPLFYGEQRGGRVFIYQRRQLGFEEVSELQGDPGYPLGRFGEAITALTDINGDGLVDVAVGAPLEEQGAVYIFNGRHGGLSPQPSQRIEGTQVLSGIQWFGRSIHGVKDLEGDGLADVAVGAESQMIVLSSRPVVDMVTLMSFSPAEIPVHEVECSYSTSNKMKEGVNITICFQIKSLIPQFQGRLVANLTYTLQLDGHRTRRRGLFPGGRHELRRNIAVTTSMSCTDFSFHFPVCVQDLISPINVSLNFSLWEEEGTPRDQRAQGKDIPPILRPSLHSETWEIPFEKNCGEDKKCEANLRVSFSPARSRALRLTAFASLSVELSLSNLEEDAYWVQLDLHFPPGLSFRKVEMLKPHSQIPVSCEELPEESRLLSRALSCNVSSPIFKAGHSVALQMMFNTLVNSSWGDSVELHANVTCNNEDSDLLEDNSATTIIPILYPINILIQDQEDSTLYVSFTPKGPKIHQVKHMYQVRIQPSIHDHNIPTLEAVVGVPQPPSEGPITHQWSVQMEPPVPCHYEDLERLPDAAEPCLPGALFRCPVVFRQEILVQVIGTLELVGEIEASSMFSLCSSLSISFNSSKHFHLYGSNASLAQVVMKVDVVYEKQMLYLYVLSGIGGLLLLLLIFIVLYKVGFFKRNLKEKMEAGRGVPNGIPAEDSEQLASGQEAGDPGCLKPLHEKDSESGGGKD

[15] = target: T2, rhesus CD11a; experiment: cell-based or functional assay; remark: listed apart in the source
[16] = target: T3, rhesus-human chimeric CD11a (Rh/HuCD11a); experiment: cell-based or functional assay; remark: listed apart in the source
[17] = target: T2, rhesus CD11a; experiment: cell-based or functional assay; remark: listed apart in the source
[18] = target: T2, rhesus CD11a; experiment: saturation binding, Kd(app)
[19] = target: T2, rhesus CD11a; experiment: binding to rhesus peripheral blood lymphocytes; remark: listed apart in the source
[20] = target: T2, rhesus CD11a; experiment: saturation binding, rhesus leukocytes, donor 1, Kd(app)
[21] = target: T2, rhesus CD11a; experiment: cell binding EC50 on rhesus CD11a against HuIgG1 on human CD11a
[22] = target: T2, rhesus CD11a; experiment: saturation binding, rhesus leukocytes, donor 3, with 1 mg/ml human IgG1, Kd(app)

EC50 F(ab)/EC50 F(ab)-2 [1]: 0.004 ratio
EC50 [2]: 42 pM
Var.EC50/HuIgG1 EC50 [3]: 1 ratio
IC50, blocking of cell adhesion, Jurkat:HuK [4]: 130 pM
IC50, human mixed lymphocyte response assay [5]: 380 pM
fold reduction in binding against human CD11a [6]: ~1000 fold
EC50 [7]: 45600 pM
Var.EC50/HuIgG1 EC50 [8]: 1 ratio
Kd [9]: 110 pM
Kd [10]: 180 pM
Kd [11]: 150 pM
B1: humanized MHM24 IgG1 (HuIgG1) (antibody, V domains shown)
VH: EVQLVESGGGLVQPGGSLRLSCAASGYSFTGHWMNWVRQAPGKGLEWVGMIHPSDSETRYNQKFKDRFTISVDKSKNTLYLQMNSLRAEDTAVYYCARGIYFYGTTYFDYWGQGTLVTVSS
VL: DIQMTQSPSSLSASVGDRVTITCRASKTISKYLAWYQQKPGKAPKLLIYSGSTLQSGVPSRFSGSGSGTDFTLTISSLQPEDFATYYCQQHNEYPLTFGQGTKVEIKR
notes: F(ab)-8 VL and VH fused to human constant light and IgG1 heavy chains; also called HulgG1; huMHM24

fold improvement in binding over F(ab)-6 [12]: 3 fold
EC50 F(ab)/EC50 F(ab)-2 [1]: 0.004 ratio
B2: humanized MHM24 F(ab)-7 (Fab, V domains shown)
VH: B1 VH with K76S, N77S
VL: DIQMTQSPSSLSASVGDRVTITCRASKTISKYLAWYQQKPGKAPKLLIYSGSTLQSGVPSRFSGSGSGTDFTLTISSLQPEDFATYYCQQHNEYPLTFGQGTKVEIK

fold improvement in binding over F(ab)-5 [12]: 4 fold
EC50 F(ab)/EC50 F(ab)-2 [1]: 0.012 ratio
B3: humanized MHM24 F(ab)-6 (Fab, V domains shown)
VH: B1 VH with Y27F, K76S, N77S
VL: B2 VL

fold weaker EC50 than chimeric IgG1 [12]: 148 fold
EC50 [1]: 0.771 µg/mL
EC50 F(ab)/EC50 F(ab)-2 [1]: 1 ratio
B4: humanized MHM24 F(ab)-2 (Fab, V domains shown)
VH: B1 VH with Y27F, K74N
VL: B2 VL with T53S, Q55E
notes: F(ab) from E. coli

binding result [1]: no binding
B5: humanized MHM24 F(ab)-1 (Fab, V domains shown)
VH: B1 VH with Y27F, N61A, Q62D, K63S, F64V, D66G, K74N
VL: B2 VL with T53S, Q55E
notes: F(ab) from E. coli (VH-CH1 and kappa light chain)

fold less efficacious than MHM23, rhesus lymphocytes to human keratinocytes [13]: 74 fold
fold less efficacious than MHM23, rhesus lymphocytes to recombinant human ICAM-1 [13]: 4 fold
fold down from MHM23, Rh/HuCD11a-293 cells to human keratinocytes [14]: 4 fold
IC50, blocking of cell adhesion, RhLy:HuICAM [15]: 5300 pM
IC50, blocking of cell adhesion, RhLy:HuK [15]: 119000 pM
IC50, blocking of cell adhesion, Rh/HuCD11a:HuK [16]: 4900 pM
IC50, rhesus mixed lymphocyte response assay [17]: 23400 pM
fold down in Kd from HuIgG1 for human CD11a [18]: ~26 fold
EC50 [19]: 190 pM
fold improvement over the EC50 of HuIgG1 for rhesus CD11a [19]: 240 to 415 fold
Var.EC50/HuIgG1 EC50 [8]: 0.004 ratio
Kd [20]: 3900 pM
fold weaker than the EC50 of HuIgG1 for human CD11a [21]: 3 to 5 fold
Kd [22]: 2800 pM and 2700 pM
B6: rhesus-binding MHM24 (RhIgG1), variant H2C12 (antibody, V domains shown)
VH: B1 VH with H52A, S54A, D55S, E57S
VL: B1 VL
notes: Human IgG1; also called H2C l2; H2Cl2

EC50 [19]: 110 pM
fold improvement over the EC50 of HuIgG1 for rhesus CD11a [19]: 240 to 415 fold
Var.EC50/HuIgG1 EC50 [8]: 0.002 ratio
fold weaker than the EC50 of HuIgG1 for human CD11a [21]: 3 to 5 fold
B7: H2C11 variant IgG1 (antibody, V domains shown)
VH: B1 VH with H52A, S54A, D55S, E57N
VL: B2 VL
notes: HuIgG1 variant, human IgG1

IC50, blocking of cell adhesion, Jurkat:HuK [4]: 90 pM
fold reduction in binding against human CD11a [6]: ~1000 fold
Kd [9]: 160 pM
Kd [10]: 130 pM
Kd [11]: 150 pM
B8: murine MHM24 (antibody, V domains shown)
VH: EVQLQQPGAELMRPGASVKLSCKASGYSFTGHWMNWVRQRPGQGLEWIGMIHPSDSETRLNQKFKDKATLTVDKSSSSAYMQLSSPTSEDSAVYYCARGIYFYGTTYFDYWGQGTTLTVSS
VL: DVQITQSPSYLAASPGETISINCRASKTISKYLAWYQEKPGKTNKLLIYSGSTLQSGIPSRFSGSGSGTDFTLTISSLEPEDFAMYYCQQHNEYPLTFGTGTKLELKR
notes: Murine monoclonal antibody; also called muMHM24; murMHM24

EC50 [12]: 0.0052 µg/mL
EC50 F(ab)/EC50 F(ab)-2 [1]: 0.006 ratio
IC50, blocking of cell adhesion, Jurkat:HuK [4]: 100 pM
B9: chimeric MHM24 IgG1 (chIgG1) (antibody, V domains shown)
VH: B8 VH
VL: B8 VL
notes: Murine VL and VH fused to human constant light and heavy (IgG1) chains; also called chimeric IgG1; chlgG1
